Test results reported in article PMC7650249.

Experiments:
[1] = target: protein C S12C/R312C mutant, labeled with AF555/AF647 (two-chain zymogen) (human) (UniProt P04070); experiment: other fluorescence titration; single molecule FRET of freely diffusing labeled protein C or APC (150 pM) titrated with thrombin S195A; shift of the peak center of the low FRET population, single-site fit; 20 mM Tris, 145 mM NaCl, 0.02% Tween 20, pH 7.5, 10 mM EDTA, 20 °C
[2] = target: activated protein C S12C/R312C mutant, labeled with AF555/AF647 (human) (UniProt P04070); experiment: as above

“thrombin, catalytically inactive mutant S195A (enzyme)” was tested, and the Kd [1] was 860 nM and the Kd [2] was 1100 nM.
